Assay results as given in US20120322150.

Legend:
GST-hsGSK3β = GST-hsGSK3β (UniProt P49841)
GST-BIN2 = target: T1, GST-BIN2 (UniProt Q39011)
T1 sequence: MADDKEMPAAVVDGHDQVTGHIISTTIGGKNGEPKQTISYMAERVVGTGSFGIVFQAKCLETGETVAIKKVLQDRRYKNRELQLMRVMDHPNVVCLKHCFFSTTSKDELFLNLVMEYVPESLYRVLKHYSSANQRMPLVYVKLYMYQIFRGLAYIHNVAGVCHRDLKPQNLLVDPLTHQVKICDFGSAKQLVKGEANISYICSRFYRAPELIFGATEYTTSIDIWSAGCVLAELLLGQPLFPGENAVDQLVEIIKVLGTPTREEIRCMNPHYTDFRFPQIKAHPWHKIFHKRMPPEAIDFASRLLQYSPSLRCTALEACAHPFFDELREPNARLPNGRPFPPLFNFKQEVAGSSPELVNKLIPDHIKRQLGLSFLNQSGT

Chain of GST-hsGSK3β (P49841 whole entry, looked up): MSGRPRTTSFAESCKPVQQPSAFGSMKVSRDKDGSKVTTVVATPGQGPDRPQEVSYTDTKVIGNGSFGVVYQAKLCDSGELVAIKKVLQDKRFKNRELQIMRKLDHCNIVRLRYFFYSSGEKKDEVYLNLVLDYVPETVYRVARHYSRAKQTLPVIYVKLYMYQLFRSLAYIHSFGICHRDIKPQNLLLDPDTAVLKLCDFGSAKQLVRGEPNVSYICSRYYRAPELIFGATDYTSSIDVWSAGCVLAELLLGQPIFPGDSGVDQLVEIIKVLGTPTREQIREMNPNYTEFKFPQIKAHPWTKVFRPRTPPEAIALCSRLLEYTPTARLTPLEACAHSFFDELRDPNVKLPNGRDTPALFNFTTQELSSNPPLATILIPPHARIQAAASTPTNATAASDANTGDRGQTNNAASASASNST

Row | Substance | phosphorylation status of tyrosine 216 of hsGSK3β (immunoblot with anti-phospho-tyrosine 216 antibody) (GST-hsGSK3β) | dephosphorylation of BIN2 tyrosine200 (GST-BIN2)
1 | MBP-hsPPP1cc | human protein phosphatase 1 gamma (PP1γ) dephosphorylates tyrosine 216 of human GSK3 beta in vitro | 
2 | PP1 purified from E. coli |  | The presence of PP1 increased dephosphorylation of BIN2 tyrosine200
